From patent US20240025971A1

Biological target: SARS-CoV-2 Spike (S) trimer (SARS-CoV-2), P0DTC2
Assay: ELISA, S trimer coated, 1:50 dilution
Details: remark: other sources report otherwise

Binder	Optical Density (OD; 450 nm) [OD450]
AB-009237 (antibody, V domains shown) VH: QVQLLQSGAEVKKPGASVSVSCKASGFTFTSYYFHWVRQAPGQGLEWMGIVSPAGGSTNYAQKFQGRVTMTRDTSTSTVHMELRNVRYDDTAVFYCARSVYCSSPSCPHGMDVWGPGTMVTVSS VL: DIQVTQSPSTLSASVGDRVTITCRASQSILTYLAWYQQKPGKAPNLLIYKASNLQSGVPSRFSGSGSGTEFTLTISSLQPDDFATYHCQQYKSYPFSFGQGTKLAIK	0.228
AB-009244 (antibody, V domains shown) VH: EVQLVESGGGLVQPGGSLRLSCAASGFAFNTYGINWVRQAPGKGLEWVSFISSRSTTIHYADSVRGRFTISRDNAKNSLYLQMNNLRDEDTAVYYCARDLLIWFGETGAFDIWGQGTMVTVSS VL: EVVMTQSPATLSVSSGERVTLSCRASQSVSNNLAWYQQKPGQAPRLLIYGASTRATGFPARFSGSGSGTEFTLTISSLQSEDFAVYYCQQYNIWPPGTFGQGTKLEIK	0.239
AB-009231 (antibody, V domains shown) VH: EVQLVESGGGLVQPGGSLRLSCAASGFTFSSYWMSWVRQAPGKGLEWVANIKQDGSEKYYVDSVKGRFTISRDNAKNSLYLQMNSLRAEDTAVYYCARVSMRFLEWSFYYYYYMDVWGKGTTVTVSS VL: SSELTQDPAVSVALGQTVRITCQGDSLRSYYASWYQQKPGQAPVLVIYGKNNRPSGIPDRFSGSSSGNTASLTITGAQAEDEADYYCNSRDSSGNHLGVVFGGGTKLTVL	0.46
AB-009627 (antibody, V domains shown) VH: QVQLQQWGAGLLKPSETLSLTCAVYGGSFSGYYWSWIRQPPGKGLEWIGEINHSGSTNYNPSLKSRVTISVDTSKNQFSLKLSSVTAADTAVFYCARGGYSSSWYGEKYWFDPWGQGTLVTVSS VL: QSALTQPRSVSGSPGQSVTISCTGTSSDVGGYNYVSWYQQHPGKAPKLMIYDVSKRPSGVPDRFSGSKSGNTASLTISGLQAEDEADYYCCSYAGSPYVFGTGTKVTVL	0.823
AB-009108 (antibody, V domains shown) VH: QVQLQESGPGLVKPSETLALTCTVSGDSIINNNFYWGWLRQPPGQGLEWIGSLFHTGSAYYNSSLKSRVRSSVDTARNQISLRLSSVTAADTAVYYCARVNIVSVPAPPGAIEGWFDPWGQGTRVTVSP VL: SYELTQPPSVSVSLGQTARISCSGDALPTKYVHWYQQKAGQAPVVVIFRDTERPSEIPERFSGSSSGTTVTLTISGVQAEDEADYYCQSVDGSGFYVFGSGTKVTVL	0.28
AB-009174 (antibody, V domains shown) VH: QVQLQQWGAGLLKPSETLSLTCAVYGESFSGYYWNWIRQPPGKGLEWIGEIDQSGSTNYNPSLKSRVTISVDTSKNQFSLKLTSVTAADTAVYYCARVSGRMQLWLRAGYMDVWDKGTTVTVSS VL: QSALTQPASVSGSPGQSITISCTGTSSDVGRYNYVSWYQQHPGKAPKLMIYEVSNRPSGVSNRFSGSKSGNTASLTISGLQAEDEADYYCSSYTTSSTRVFGGGTKLTVL	0.154
AB-009202 (antibody, V domains shown) VH: QVQLVESGGGVVQPGRSLRLSCAASGFTFSSYGMHWVRQAPGKGLEWVAVIWYDGSNKYYADSVKGRFTISRDNSKNTLYLQMNSLRAEDTAVYYCARDGGPEYYFDYWGQGTLVTVSS VL: SYELTQPPSVSVSPGQTARITCSGDALPKQYAYWYQQKPGQAPVLVIYKDSERPSGIPERFSGSSSGTTVTLTISGVQAEDEADYYCQSADSSGTYNVVFGGGTKLTVL	1.99
